Measured values published in the supplement of paper PMC12042874.
± gives the uncertainty stated by the source.

Test: amyloid nucleation score (Sup35N fusion, yeast selection) (log enrichment); library NNK2; higher = more nucleation; inactive = no reads after selection
Method in brief: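 Sup35N was fused to peptides of 20 random codons and expressed in psi-negative yeast, which were induced with 100 μM copper sulfate for 24 hours and then grown on medium lacking adenine and uracil for 7 days at 30°C. Plasmid inserts from input and output were sequenced on Illumina. The nucleation score is the DiMSum log enrichment of output over input reads, centred on the mode score of non-aggregating sequences. Sequences with under 100 input reads were left out, and random libraries had three technical output replicates.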

Row | Substance | amyloid nucleation score
1 | RRFCSCQLSKPLIFPMVLYW | -0.454 ± 0.53
2 | SKFWVARRCFASHLK | -0.272 ± 1.1
3 | RWEDRPSVTRRSGVRNGFSG | inactive
4 | PVFVLNVLLVILDPFLGLSN | -0.237 ± 0.34
5 | WCLSLPVRDSTVCLSTVLSG | 0.294 ± 0.29
6 | DISVYSDFVLSFICADVHPS | 5.02 ± 0.04
7 | KLIYLGGSSEFGTHFSA | -0.429 ± 0.61
8 | MPEIREREMYGLVESLEYKK | -0.147 ± 0.41
9 | HLLQRLSRGHMSALKTRLSW | 0.123 ± 1
10 | STKSSVAVGSDSWNRSHRQV | 0.773 ± 0.22
11 | NTGWILPYCKRGNSALEGWL | 4.31 ± 0.056
12 | HLGRG | 0.126 ± 0.45
13 | FMRMALAGPDKF | -0.738 ± 1.1
14 | KFTSCAVNNDIMLLLVRVGF | -1.61 ± 0.75
15 | KRYLTGSEVIVGWCC | 0.329 ± 0.38
16 | YFSDLDAL | inactive
17 | TTTWGENLFASNYLLSKTAG | -0.088 ± 1.1
18 | GDKLIEGRASGKGNWILERG | 1.19 ± 0.34
19 | EGVVSVRVFKYTGSYG | 0.599 ± 0.8
20 | LGGTY | -0.449 ± 0.64
21 | FVVESVKVNRSLACF | -0.205 ± 0.45
22 | SYVVCSVIGYYDYLRSRPSC | 9.631 ± 0.036

Row | Substance | amyloid nucleation score
23 | SQIRGESSYYCLPSFSLLFF | 6.215 ± 0.057
24 | FDKRS | inactive
25 | FFFRSHKTIILVAKG | -0.104 ± 0.2
26 | NGSRI | 0.018 ± 0.31
27 | GFYIKVFNSEWYALNLDVRL | 4.67 ± 0.075
28 | VLSWGFKGNAKPHHTDSLKG | 0.603 ± 0.22
29 | RMGCLFCRESNWILSFYSVS | 5.87 ± 0.074
30 | YSRFYLYMSRRGMRS | -0.122 ± 0.53
31 | EYMYYGFYCHYGSSVLAF | -0.731 ± 0.56
32 | SLCLLIALSRWSIAS | 1.14 ± 0.3
33 | LSGAPRLILRVNLWDTFDVQ | 4 ± 0.046
34 | LRYRDASEALSYLCMQYDVI | 2.94 ± 0.05
35 | VCRPDINVAHHPGFNFIVRS | inactive
36 | YIVLCYSFRFVFF | inactive
37 | IGFDFRTA | 0.418 ± 0.62
38 | KVLRLIRY | 1.25 ± 0.48
39 | LNSHSITMLLNSVCGCQSWT | 9.201 ± 0.062
40 | IIRDPTACTFLVCVSYME | 6.27 ± 0.059
41 | NINYGSSA | -0.746 ± 0.78
42 | GGGNCKKGYGCDVDCYESEG | -0.735 ± 0.56
43 | CMFLFYVKYLNVHSGGLIML | inactive
44 | CIVAFEFLYWCRRIAFNPGG | -0.475 ± 0.31

Row | Substance | amyloid nucleation score
45 | QFHFWMQRMMFPLEFVIWVW | 1.33 ± 0.34
46 | YGYSIYLFTGCVKTVLFVSD | 4.68 ± 0.048
47 | ENFRGTFKIRRRCCL | -0.251 ± 0.76
48 | SMRVECF | -1.82 ± 1.1
49 | LLSMYRFFNTLKSC | -0.087 ± 0.33
50 | LKFRRYVCKVLWEAYG | 0.153 ± 0.43
51 | IFNKYLVIFSIFI | 6.747 ± 0.037
52 | TRWSHK | inactive
53 | CYWERWAS | -1.84 ± 0.78
54 | AKFMGLCRDKGLQLC | -0.331 ± 0.55
55 | SLGHDSICWRWSLE | 5.49 ± 0.094
56 | IYIMVTVF | 0.086 ± 0.33
57 | VISEGRHKSFSL | -0.105 ± 1.1
58 | IFNVSLGYLTLIMVHYEFLH | 5.733 ± 0.042
59 | ILWDRISFNMLRLTRCRFFF | -0.632 ± 1.1
60 | MILEVSDWLGVVCVIKVWLT | 0.561 ± 0.41
61 | SFKYCMMISGGF | 4.503 ± 0.041
62 | WIVSGKLTTTFSLRR | 5.15 ± 0.058
63 | MVCRFGILSYVMWRF | 0.83 ± 0.45
64 | MGCCIYCYSRIDHL | 8.743 ± 0.055
65 | HRTLMIVKLCKRSGPFIL | -1.22 ± 0.42
66 | VLATSFNFELGSGRTDLCRV | -0.805 ± 0.46

Row | Substance | amyloid nucleation score
67 | SDWFW | -0.664 ± 0.5
68 | MACTFHVLTMGRFWSAWHRM | 0.598 ± 0.29
69 | KLVLSNSALFRRTFAINPV | 0.626 ± 0.8
70 | ITLASDFACLFGVIDYSWIV | 0.143 ± 0.49
71 | SVYVCVKWESVSVLVLY | 1.86 ± 0.12
72 | WWLSGA | 0.898 ± 0.35
73 | SIGFPSMSMRSWILFTSLYR | 0.004 ± 0.8
74 | LSSGLLSLFALKQCF | -0.669 ± 0.54
75 | SFLVISWRADRFAA | 5.124 ± 0.042
76 | IMVVEQYLYYYSKVCTFFSV | inactive
77 | AHSKHPGTYGQFMSEQSGEA | 0.767 ± 0.51
78 | GQWGETY | 0.476 ± 0.25
79 | GIIDLHAYLFKVHEWAHPHR | 6.07 ± 0.063
80 | TCKVRLRHVDYNCIMVLLLM | -0.359 ± 0.45
81 | YCTGPVIWPWHKGLLSWYAW | 1.19 ± 0.57
82 | WHMSWLK | 0.114 ± 0.63
83 | GTPDYGCSSNVYCD | inactive
84 | VYCSSCSVFLLCVKNLSWCV | 8.658 ± 0.053
85 | TLMYSQSAIDWTMSSPGRCR | 1.49 ± 0.36
86 | VYMGSDL | 6.07 ± 0.072
87 | SKMCCDMYISISCIIWSARR | 0.352 ± 0.32
88 | LYKSSQKKPQTLNDFQIAMW | 0.193 ± 0.65
